Measurements as given in patent US20230227534A1, “METHOD FOR GENERATING VARIANTS OF A PROTEIN” (ECOLE POLYTECHNIQUE FEDERALE DE LAUSANNE (EPFL), priority 2019, published 2023).
Substitutions are numbered along the chain they refer to. Numbers in names are those of the source.

System: transducin
Assay: transducin activation by designed opsin mutants (constitutive and light-induced activity)
Type: biochemical
Settings: data not shown

B1: M257Y.I305A: opsin (rhodopsin) double mutant, M257Y on TMH6 and I305A on TMH7 (protein, UniProt P02699 1-348, looked up, variant M257Y I305A)
Rhodopsin: MNGTEGPNFYVPFSNKTGVVRSPFEAPQYYLAEPWQFSMLAAYMFLLIMLGFPINFLTLYVTVQHKKLRTPLNYILLNLAVADLFMVFGGFTTTLYTSLHGYFVFGPTGCNLEGFFATLGGEIALWSLVVLAIERYVVVCKPMSNFRFGENHAIMGVAFTWVMALACAAPPLVGWSRYIPEGMQCSCGIDYYTPHEETNNESFVIYMFVVHFIIPLIVIFFCYGQLVFTVKEAAAQQQESATTQKAEKEVTRMVIIYVIAFLICWLPYAGVAFYIFTHQGSDFGPIFMTIPAFFAKTSAVYNPVAYIMMNKQFRNCMVTTLCCGKNPLGDDEASTTVSKTETSQVAPA
rate of transducin activation (compared to M257Y alone): higher | constitutive activity compared to WT opsin: much larger

B2: M257Y: opsin (rhodopsin) mutant, M257Y on TMH6 (protein, UniProt P02699 1-348, looked up, variant M257Y)
Rhodopsin: B1 Rhodopsin with A305I
constitutive activity compared to WT opsin: much larger

B3: K231E.E232I.T251R: opsin (rhodopsin) ICL3 triple mutant (protein, UniProt P02699 1-348, looked up, variant K231E E232I T251R)
Rhodopsin: B1 Rhodopsin with K231E, E232I, T251R, Y257M, A305I
constitutive activity as share of the light-induced maximal activity: higher than 40% | constitutive activity compared to WT opsin: dramatically increased
